From patent publication US20260242721A1, “A SYNTHETIC CELLULAR ADVANCED SIGNAL ADAPTER (SCASA) SYSTEM” (Danmarks Tekniske Universitet, priority 2023, published 2026)

How the values were obtained:
[1] = target: T1, Saccharomyces cerevisiae α-factor pheromone receptor (Ste2) (Saccharomyces cerevisiae) (UniProt D6VTK4); experiment: cell-based or functional assay
T1 sequence: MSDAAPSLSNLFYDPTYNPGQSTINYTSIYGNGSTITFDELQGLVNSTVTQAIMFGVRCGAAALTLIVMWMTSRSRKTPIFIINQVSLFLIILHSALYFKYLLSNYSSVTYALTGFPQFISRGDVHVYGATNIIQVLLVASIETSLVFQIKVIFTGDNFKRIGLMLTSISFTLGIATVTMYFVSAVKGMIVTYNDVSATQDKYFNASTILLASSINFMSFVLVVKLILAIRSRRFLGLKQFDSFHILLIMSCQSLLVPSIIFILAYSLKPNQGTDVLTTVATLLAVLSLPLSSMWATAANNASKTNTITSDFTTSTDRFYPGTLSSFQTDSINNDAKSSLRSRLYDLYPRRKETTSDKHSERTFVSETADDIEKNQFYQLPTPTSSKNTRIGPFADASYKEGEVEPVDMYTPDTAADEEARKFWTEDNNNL

[2] = system: pheromone response pathway (PRP)
Description: To investigate the dose-response features of the selected promoters PMFA2, PFUS1, PAGA2, PFIG.1, PMFA1, PYCL076W, PHPF1, PIME4, PCSS1, PTDH3, PPGK1 and P6XLexOLEU2 upon GPCR stimulation the strains were pre-grown in SC (24 hrs.), whereafter, for each replicate, cells were transferred to 200 μL volumes comprising a 10-fold dilution series of α-factor (0-100 μM) (GenScript) dissolved in SC+1% DMSO, and stimulated for 5 hrs. (30° C., 250 r.p.m.). Flow cytometric measurement was done to quantify yEGFP levels (B525/45-A) and PRP-regulated morphological changes, denoted shmooing (SSC-A) using a NovoCyte Quanteon flow cytometer (Agilent). Data represents means of median fluorescence intensity (mMFI) for three biological replicates and standard deviations hereof. Two-way ANOVA with Tukey's multiple comparisons test was conducted for all conditions.

[3] = system: CD19; experiment: Yeast surface display (YSD) of CD19, antibody staining and flow cytometry; type: cell-based, Saccharomyces cerevisiae; settings: for fold upregulation of CD19 display relative to unstimulated condition: α-factor 0-100 μM, 20 hrs, promoter driving CD19 in DIX41 background
Description: To investigate the different variants of CD19 modules, yeast cells were grown and, in some cases, stimulated to present CD19 differentially, whereafter they were stained with antibodies and assessed by flow cytometry. Flow cytometric measurement was done using a NovoCyte Quanteon flow cytometer (Agilent) to quantify CD19 by staining with mouse anti-CD19 (FMC63) (Absolute Antibody; Ab00613) and goat anti-mouse-AF647 (polyclonal) (Thermo Fisher; A-21236), detected in R667/30-H, as well as rabbit anti-HA (RM305) (Thermo Fisher; MA5-27915) and goat anti-rabbit-AF488 (polyclonal) (Thermo Fisher; A-11008), detected in B525/45-H (see FIG. 7), and to measure PRP-regulated morphological changes (SSC-H). […] Data represents means of median fluorescence intensity (mMFI) for three biological replicates and standard deviations hereof. Two-way ANOVA with multiple comparisons tests was conducted for all conditions. Histograms are representative replicates. No SSC-normalization was used in the evaluation of the effector module, unlike in Example 1, as it is the absolute response of all effects combined that constitute the total output that CAR T cells interpret and react to.
For conventional YSD using strain EBY100 and pCT-plasmid-based expression (Chao et al. 2006, Isolating and engineering human antibodies using yeast surface display. Nature Protocols, 1(2), 755-768), strains were pre-grown in SC −trp, then transferred to 5 mL SC −trp +2% Gal for induction of YSD or +2% Gluc as a negative control (24 hrs., 30° C., 250 r.p.m.). NALM6 was cultured in RPMI 1640 medium (ATCC modification) (Thermo Fisher) with 10% fetal bovine serum and 1% pen-strep (RPMI+10% FBS) at 37° C. with 5% CO2. For the investigation of PGAL1-titratability of DIX41 with pMAD58 and DIX74, strains were pre-grown in SC −ura and SC, respectively, then transferred to SC −ura and SC, respectively, with varying concentrations of galactose (0.0002%-2% Gal), using raffinose as compensating carbon source, and YSD was induced for 24 hrs. (30° C., 250 r.p.m.). Strains were similarly grown in 2% Gluc as negative controls. For the investigation of the strain library with constitutive and dynamically regulated expression of CD19 (Background strain/No YSD, PPGK1-Empty, PMFA2-CD19, PFUS1-CD19, PFIG.1-CD19, PMFA1-CD19, PHPF1-CD19, PTDH3-CD19, PPGK1-CD19) the strains were pre-grown in SC, whereafter, for each replicate, 50.000 cells were transferred to 300 μL volumes comprising a 10-fold dilution series of α-factor (0-100 μM) (GenScript) dissolved in SC+1% DMSO, and stimulated for 20 hrs. (30° C., 250 r.p.m.).

Molecule: α-factor (GenScript) (from UniProt P01149 90-102) (peptide)
- fold change of induction of yEGFP, SSC-normalized, promoter PFIG1, maximum at 100 µM α-factor [1]: 129 fold
- fold change of induction of yEGFP, SSC-normalized, promoter PHPF1 [1]: 0.62 fold
- fold change of yEGFP, unnormalized, promoter PFIG1, 1 µM α-factor [1]: 517 fold
- fold change of yEGFP, unnormalized, promoter PFIG1, 100 µM α-factor [1]: 483 fold
- fold upregulation of CD19 display, promoter PFIG1, 20 hrs α-factor [1]: 630 fold
- fold upregulation of CD19 display, promoter PFUS1, 20 hrs α-factor [1]: 774 fold
- fold upregulation of CD19 display, promoter PTDH3 [1]: 3.1 fold
- general PRP-induced expression boost of yEGFP after 5 hrs of GPCR stimulation [1]: 4.01 fold
- maximal fold change of CD19 display, promoters PHPF1, PTDH3 and PPGK1, lower end [1]: 2.9 to 3.8 fold
- maximal fold change of CD19 display, promoters PHPF1, PTDH3 and PPGK1, upper end [1]: 2.9 to 3.8 fold

Molecule: α-factor [reference compound]
- α-factor concentration at which shmooing (SSC-A) was most intense ([2]; across all strains, 5 hrs): ≥ 0.01 µM
- α-factor concentration at which shmooing generally peaked ([2]; across all strains, 5 hrs): 1 µM

B1: PTDH3: constitutive Saccharomyces cerevisiae promoter, SEQ ID NO: 10, processing module (DIX28, DIX49) (nucleic acid, listed as Saccharomyces cerevisiae)
DNA: CTATTTTCGAGGACCTTGTCACCTTGAGCCCAAGAGAGCCAAGATTTAAATTTTCCTATGACTTGATGCAAATTCCCAAAGCTAATAACATGCAAGACACGTACGGTCAAGAAGACATATTTGACCTCTTAACAGGTTCAGACGCGACTGCCTCATCAGTAAGACCCGTTGAAAAGAACTTACCTGAAAAAAACGAATATATACTAGCGTTGAATGTTAGCGTCAACAACAAGAAGTTTAATGACGCGGAGGCCAAGGCAAAAAGATTCCTTGATTACGTAAGGGAGTTAGAATCATTTTGAATAAAAAACACGCTTTTTCAGTTCGAGTTTATCATTATCAATACTGCCATTTCAAAGAATACGTAAATAATTAATAGTAGTGATTTTCCTAACTTTATTTAGTCAAAAAATTAGCCTTTTAATTCTGCTGTAACCCGTACATGCCCAAAATAGGGGGCGGGTTACACAGAATATATAACATCGTAGGTGTCTGGGTGAACAGTTTATTCCTGGCATCCACTAAATATAATGGAGCCCGCTTTTTAAGCTGGCATCCAGAAAAAAAAAGAATCCCAGCACCAAAATATTGTTTTCTTCACCAACCATCAGTTCATAGGTCCATTCTCTTAGCGCAACTACAGAGAACAGGGGCACAAACAGGCAAAAAACGGGCACAACCTCAATGGAGTGATGCAACCTGCCTGGAGTAAATGATGACACAAGGCAATTGACCCACGCATGTATCTATCTCATTTTCTTACACCTTCTATTACCTTCTGCTCTCTCTGATTTGGAAAAAGCTGAAAAAAAAGGTTGAAACCAGTTCCCTGAAATTATTCCCCTACTTGACTAATAAGTATATAAAGACGGTAGGTATTGATTGTAATTCTGTAAATCTATTTCTTAAACTTCTTAAATTCTACTTTTATAGTTAGTCTTTTTTTTAGTTTTAAAACACCAAGAACTTAGTTTCGAATAAACACACATAAACAAACAAA
- fold upregulation of CD19 display relative to unstimulated condition [3]: 3.1±0.3 fold
- change of absolute CD19 output on upregulation compared with that of PFUS1 ([3]; α-factor stimulation): 150.2%

B2: PFUS1: pheromone-responsive Saccharomyces cerevisiae promoter, SEQ ID NO: 8, processing module (yEGFP strain DIX24, CD19 strain DIX45) (nucleic acid, listed as Saccharomyces cerevisiae)
DNA: TAATAATCAGAACTCCAACAATAGTCAACAGGGCTATAACCAATCCTATCAAAACGGTAACCAAAATAGTCAAGGTTACAATAATCAACAGTACCAAGGTGGCAACGGTGGTTACCAACAACAACAGGGACAATCTGGTGGTGCTTTTTCCTCATTGGCCTCCATGGCTCAATCTTACTTAGGTGGTGGACAAACTCAATCCAACCAACAGCAATACAATCAACAAGGCCAAAACAACCAGCAGCAATACCAGCAACAAGGCCAAAACTATCAGCATCAACAACAGGGTCAGCAGCAGCAACAAGGCCACTCCAGTTCATTCTCAGCTTTGGCTTCCATGGCAAGTTCCTACCTGGGCAATAACTCCAATTCAAATTCGAGTTATGGGGGCCAGCAACAGGCTAATGAGTATGGTAGACCGCAACAGAATGGTCAACAGCAATCCAATGAGTACGGAAGACCGCAATACGGCGGAAACCAGAACTCCAATGGACAGCACGAATCCTTCAATTTTTCTGGCAACTTTTCTCAACAGAACAATAACGGCAACCAGAACCGCTACTGAACGATGATTCAGTTCGCCTTCTATCCTTTGTTTACGTATTTGTTTATATATATAACTTTATTTTTTTTTATTAATTGGGCTGCAAGACAATTTTGTTGTCAGTGATGCCTCAATCCTTCTTTTGCTTCCATATTTACCATGTGGACCCTTTCAAAACAGAGTTGTATCTCTGCAGGATGCCCTTTTTGACGTATTGAATGGCATAATTGCACTGTCACTTTTCGCGCTGTCTCATTTTGGTGCGATGATGAAACAAACATGAAACGTCTGTAATTTGAAACAAATAACGTAATTCTCGGGATTGGTTTTATTTAAATGACAATGTAAGAGTGGCTTTGTAAGGTATGTGTTGCTCTTAAAATATTTGGATACGACATCCTTTATCTTTTTTCCTTTAAGAGCAGGATATAAGCCATCAAGTTTCTGAAAATCAAA
- maximal absolute yEGFP output relative to orthogonal P6xLexOLEU2 ste12Δ0 strain ([2]; PFUS1 STE12+ strain): 4.2 fold
- promoter strength relative to P6xLexOLEU2 at maximal induction ([2]; SSC-normalized promoter activity): 1.4 fold
- CD19 level at unstimulated conditions ([3]; no GPCR stimulation): extremely low levels of CD19 at the limit of detection
- fold upregulation of CD19 display relative to unstimulated condition [3]: 774±165 fold
